Ends that are not written are not given here. * marks the point of attachment. Biotin = O=C1N[C@H]2[C@H](CS[C@H]2CCCCC(=O)*)N1
Target: T1, full length VDR/RXRα heterodimer (His-hVDR with Flag-hRXRα) (human, UniProt P11473 1-427; P19793 1-462)
T1 sequence (looked up) 1: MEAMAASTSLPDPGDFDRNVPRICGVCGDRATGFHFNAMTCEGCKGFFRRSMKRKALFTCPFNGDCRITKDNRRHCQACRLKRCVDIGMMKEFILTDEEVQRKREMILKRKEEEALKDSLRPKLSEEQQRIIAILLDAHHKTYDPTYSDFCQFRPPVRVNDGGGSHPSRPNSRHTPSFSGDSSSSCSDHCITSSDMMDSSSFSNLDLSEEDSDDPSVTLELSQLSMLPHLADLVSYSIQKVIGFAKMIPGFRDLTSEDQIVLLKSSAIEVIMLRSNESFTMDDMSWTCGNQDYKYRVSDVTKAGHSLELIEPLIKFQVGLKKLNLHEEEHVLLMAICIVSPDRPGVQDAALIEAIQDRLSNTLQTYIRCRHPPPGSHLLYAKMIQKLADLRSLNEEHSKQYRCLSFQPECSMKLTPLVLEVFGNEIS
T1 sequence (looked up) 2: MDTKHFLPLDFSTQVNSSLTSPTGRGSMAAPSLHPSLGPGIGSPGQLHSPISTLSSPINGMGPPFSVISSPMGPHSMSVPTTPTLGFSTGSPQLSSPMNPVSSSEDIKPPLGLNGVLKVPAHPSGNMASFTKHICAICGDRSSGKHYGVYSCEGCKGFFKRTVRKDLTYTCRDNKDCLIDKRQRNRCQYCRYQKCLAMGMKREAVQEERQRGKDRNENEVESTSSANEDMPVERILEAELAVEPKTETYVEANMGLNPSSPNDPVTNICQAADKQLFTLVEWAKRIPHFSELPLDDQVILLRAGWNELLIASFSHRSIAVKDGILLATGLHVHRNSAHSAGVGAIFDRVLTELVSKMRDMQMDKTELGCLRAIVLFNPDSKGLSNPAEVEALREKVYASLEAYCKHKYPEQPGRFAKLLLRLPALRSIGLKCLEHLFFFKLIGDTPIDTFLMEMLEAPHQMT
Assay: AlphaScreen or HTRF

Binder: Biotin-KGGGGSCPSSHSSLTERHKILHRLLQEGSPSDI [biotinylated SRC1-NR2 peptide]
- binding result: binds

Binder: Biotin-KGGTPPPVSSMAGNTKNHPMLMNLLKDNPAQDF [biotinylated DRIP 205-2 peptide]
- binding result: binds
